# Results as given in paper PMC8187723.
# Target: recombinant human MXRA8-Fc fusion protein (UniProt Q9BRK3)
# Settings: 37 °C; n = 2; parent: est. 19; read off a plot
substance,measurement,value
"Ross River virus T48, CPER-recovered wild type, purified virus (E1/E2 envelope glycoproteins on the virion) E2:H64W",Kd,66 nM
